Reference: patent publication US20150139990A1 (DAINIPPON SUMITOMO PHARMA, published 2015)

How the values were obtained:
human CD81 mutant V135A = target: T1, human CD81 mutant V135A (human, UniProt P60033 1-236, limits assumed); experiment: ELISA
T1 construct: as m30; not shown: C-terminal V5 and 6xHis tags
T1 sequence: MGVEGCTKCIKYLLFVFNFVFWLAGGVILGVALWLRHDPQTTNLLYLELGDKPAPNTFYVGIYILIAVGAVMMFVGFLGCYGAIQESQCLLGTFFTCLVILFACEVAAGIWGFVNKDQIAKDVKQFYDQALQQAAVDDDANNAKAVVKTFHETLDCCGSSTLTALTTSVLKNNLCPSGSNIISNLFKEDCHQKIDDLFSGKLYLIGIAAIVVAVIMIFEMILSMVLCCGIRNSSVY

human CD81 mutant D137A = target: T2, human CD81 mutant D137A (human, UniProt P60033 1-236, limits assumed); experiment: ELISA
T2 construct: as m30; not shown: C-terminal V5 and 6xHis tags
T2 sequence: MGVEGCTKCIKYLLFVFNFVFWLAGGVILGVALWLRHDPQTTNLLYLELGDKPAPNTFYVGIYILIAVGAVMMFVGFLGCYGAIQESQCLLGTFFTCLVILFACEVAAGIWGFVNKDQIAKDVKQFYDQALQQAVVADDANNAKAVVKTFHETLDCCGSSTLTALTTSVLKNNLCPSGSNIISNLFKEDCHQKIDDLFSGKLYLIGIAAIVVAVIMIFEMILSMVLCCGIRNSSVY

human CD81 mutant G158S = target: T3, human CD81 mutant G158S (human, UniProt P60033 1-236, limits assumed); experiment: ELISA
T3 construct: as m30; not shown: C-terminal V5 and 6xHis tags
T3 sequence: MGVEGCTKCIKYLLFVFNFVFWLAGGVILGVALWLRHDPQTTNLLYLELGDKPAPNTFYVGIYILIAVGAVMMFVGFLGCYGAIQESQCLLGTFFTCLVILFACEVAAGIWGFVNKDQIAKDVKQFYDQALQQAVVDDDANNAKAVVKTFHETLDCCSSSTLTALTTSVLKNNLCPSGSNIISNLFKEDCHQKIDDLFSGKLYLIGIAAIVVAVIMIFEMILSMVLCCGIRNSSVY

human CD81 mutant T163A = target: T4, human CD81 mutant T163A (human, UniProt P60033 1-236, limits assumed); experiment: ELISA
T4 construct: as m30; not shown: C-terminal V5 and 6xHis tags
T4 sequence: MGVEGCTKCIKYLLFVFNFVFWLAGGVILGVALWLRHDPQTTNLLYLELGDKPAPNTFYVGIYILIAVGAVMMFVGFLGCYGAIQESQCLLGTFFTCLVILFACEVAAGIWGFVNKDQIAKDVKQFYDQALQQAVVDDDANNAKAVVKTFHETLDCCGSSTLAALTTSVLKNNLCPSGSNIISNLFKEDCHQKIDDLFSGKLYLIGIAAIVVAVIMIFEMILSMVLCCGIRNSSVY

human CD81 mutant A164T = target: T5, human CD81 mutant A164T (human, UniProt P60033 1-236, limits assumed); experiment: ELISA
T5 construct: as m30; not shown: C-terminal V5 and 6xHis tags
T5 sequence: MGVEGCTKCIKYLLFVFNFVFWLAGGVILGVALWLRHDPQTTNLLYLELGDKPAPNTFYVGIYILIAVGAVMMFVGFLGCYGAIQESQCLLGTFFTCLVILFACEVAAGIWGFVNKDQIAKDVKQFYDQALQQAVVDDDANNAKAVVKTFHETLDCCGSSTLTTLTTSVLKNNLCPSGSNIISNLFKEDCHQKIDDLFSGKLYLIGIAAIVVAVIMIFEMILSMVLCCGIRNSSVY

human CD81 mutant L165A = target: T6, human CD81 mutant L165A (human, UniProt P60033 1-236, limits assumed); experiment: ELISA
T6 construct: as m30; not shown: C-terminal V5 and 6xHis tags
T6 sequence: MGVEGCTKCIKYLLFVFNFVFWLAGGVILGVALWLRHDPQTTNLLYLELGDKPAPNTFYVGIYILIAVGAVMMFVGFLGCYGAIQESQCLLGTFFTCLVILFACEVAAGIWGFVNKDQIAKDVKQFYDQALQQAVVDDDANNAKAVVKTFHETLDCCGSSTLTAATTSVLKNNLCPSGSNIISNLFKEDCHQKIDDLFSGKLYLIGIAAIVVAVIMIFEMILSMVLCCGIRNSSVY

human CD81 mutant V169A = target: T7, human CD81 mutant V169A (human, UniProt P60033 1-236, limits assumed); experiment: ELISA
T7 construct: as m30; not shown: C-terminal V5 and 6xHis tags
T7 sequence: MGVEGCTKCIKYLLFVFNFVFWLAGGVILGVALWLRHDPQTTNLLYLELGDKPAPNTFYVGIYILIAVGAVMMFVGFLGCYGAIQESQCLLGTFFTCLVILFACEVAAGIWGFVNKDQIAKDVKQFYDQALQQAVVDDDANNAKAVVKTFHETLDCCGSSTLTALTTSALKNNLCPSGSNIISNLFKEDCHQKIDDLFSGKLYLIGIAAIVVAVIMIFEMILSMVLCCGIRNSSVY

human CD81 mutant I194A = target: T8, human CD81 mutant I194A (human, UniProt P60033 1-236, limits assumed); experiment: ELISA
T8 construct: as m30; not shown: C-terminal V5 and 6xHis tags
T8 sequence: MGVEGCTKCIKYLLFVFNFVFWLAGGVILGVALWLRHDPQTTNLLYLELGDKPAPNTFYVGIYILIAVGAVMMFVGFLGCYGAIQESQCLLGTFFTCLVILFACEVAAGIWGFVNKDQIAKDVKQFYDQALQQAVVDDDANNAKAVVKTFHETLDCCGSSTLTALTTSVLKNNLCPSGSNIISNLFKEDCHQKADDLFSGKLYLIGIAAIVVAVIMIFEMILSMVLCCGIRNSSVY

human CD81 mutant D137E = target: T9, human CD81 mutant D137E (human, UniProt P60033 1-236, limits assumed); experiment: ELISA
T9 construct: as m30; not shown: C-terminal V5 and 6xHis tags
T9 sequence: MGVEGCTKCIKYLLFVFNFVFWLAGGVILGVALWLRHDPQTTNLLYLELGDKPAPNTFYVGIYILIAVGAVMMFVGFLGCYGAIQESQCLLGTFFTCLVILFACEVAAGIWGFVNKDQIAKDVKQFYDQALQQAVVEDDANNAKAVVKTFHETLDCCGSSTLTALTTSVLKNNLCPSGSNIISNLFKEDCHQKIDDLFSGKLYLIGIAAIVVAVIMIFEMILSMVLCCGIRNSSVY

[1] = target: T10, human CD81 on CD81-expressing cells (Jurkat E6.1, human PBMC, Ramos) (human, UniProt P60033 1-236); experiment: cell-based or functional assay
T10 sequence: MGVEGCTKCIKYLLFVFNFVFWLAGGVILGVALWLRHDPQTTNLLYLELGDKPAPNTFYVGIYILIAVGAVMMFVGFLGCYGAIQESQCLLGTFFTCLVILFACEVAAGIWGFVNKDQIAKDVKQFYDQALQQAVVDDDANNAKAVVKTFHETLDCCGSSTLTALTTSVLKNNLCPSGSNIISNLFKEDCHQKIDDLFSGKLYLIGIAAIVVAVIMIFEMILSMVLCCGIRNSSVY

B1: 002-A07 S115G (antibody, human IgG4 S228P, lambda, V domains shown)
VH: EVQLLESGGGLVQPGGSLRLSCAASGFTFSSNYMSWVRQAPGKGLEWVSYISSSSTYTDYADSVKGRFTISRDNSKNTLYLQMNSLRAEDTAVYYCARYSYGRDNFDYWGQGTLVTVSS
VL: QSVLTQPPSASGTPGQRVTISCTGSTSNIGAGYDTHWYQQLPGTAPKLLIYGNSNRPSGVPDRFSGSKSGTSASLAISGLRSEDEADYYCQSYDTNLGVWVFGGGTKLTVLG
notes: IgG4 S228P; glycosylation site mutant of 002-A07 VL
relative binding affinity (human CD81 mutant V135A): < 20% | relative binding affinity (human CD81 mutant D137A): < 20% | relative binding affinity (human CD81 mutant G158S): < 20% | relative binding affinity (human CD81 mutant T163A): < 20% | relative binding affinity (human CD81 mutant A164T): < 20% | relative binding affinity (human CD81 mutant L165A): < 20% | relative binding affinity (human CD81 mutant V169A): < 20% | relative binding affinity (human CD81 mutant I194A): < 20% | relative binding affinity (human CD81 mutant D137E): < 20% | Jurkat chemotaxis (% of control IgG4) at 0.001 µg/mL [1]: 84% | Jurkat chemotaxis (% of control IgG4) at 0.01 µg/mL [1]: 74% | Jurkat chemotaxis (% of control IgG4) at 0.1 µg/mL [1]: 13% | Jurkat chemotaxis (% of control IgG4) at 1 µg/mL [1]: -9% | Jurkat chemotaxis (% of control IgG4) at 10 µg/mL [1]: -3%
